Results on one protein are retold here after paper PMC6768288, “Biochemical and structural characterization of tyrosine aminotransferase suggests broad substrate specificity and a two‐state folding mechanism in Leishmania donovani” (FEBS Open Bio, 2019).

Holding throughout (assay): purified protein
Common to all, as to assay type: biochemical, Leishmania donovani

Substrate in data set [1]: CC(=O)C(=O)O
The conditions noted are these: co-substrate Tyr 4 mM; sodium pyruvate 0-200 mM; PLP 30 μM, 37 °C.

Substrate in data set [2]: CSCCC(=O)C(=O)O
The settings on record: co-substrate Tyr 4 mM; KMB 0-4.5 μM; PLP 30 μM, 37 °C.

Substrate in data set [3]: Cc1ncc(COP(=O)(O)O)c(C=O)c1O
The settings on record: tyrosine-sodium pyruvate as substrates; covalent internal aldimine with K286; varied: cofactor.

Substrate in data set [4]: N[C@@H](Cc1c[nH]c2ccccc12)C(=O)O
The settings on record: co-substrate sodium pyruvate 100 mM; Trp 0-7 mM; PLP 30 μM, 37 °C.

Substrate in data set [5]: N[C@@H](Cc1ccc(O)cc1)C(=O)O
The conditions noted are these: co-substrate sodium pyruvate 100 mM; Tyr 0-7 mM; PLP 30 μM, 37 °C.

Substrate in data set [6]: N[C@@H](Cc1ccccc1)C(=O)O
The settings on record: co-substrate sodium pyruvate 100 mM; Phe 0-7 mM; PLP 30 μM, 37 °C.

B1: LdTAT (Leishmania donovani) (protein)
chain: MTIDTQAAPAAQTLKAGNATGSLTEERREVEQQRAAENTSFRRIASSKHAQRTLQPLNNLTDNMKPSRSTKSNLRLSIGDPTVDGNLKTPDIVTEAMVDIVRSGKFNGYPPTVGADNLRQVVSTYWRRFCQTKSRQEALKWENVIITSGVSQAIVLALTALCNEGDNILVCAPSFPHYKSVCDSYGIECRYYYLDPSKSWECDLRAAAGMVDSHTKAFVIINPSNPCGSNFSRAHVSDIIDFCQQHQIPLISDEIYAEMVLNNGIFTSVADFDTNVPRLILGGTAKYQVCPGWRVGWSILIDPMNVAGDWAVGMERLTQLIAGVNSICQEAIARTLLKCPAECTEHIVTQLEAGAKVYARLLEHDIGISMEAPQASMFVMLKLNLSYFQDLKSDMEFYEKLLDEENVQVLPGEIFGMSGFLRATVSRPSAVLNEAVDRIIEFCERHKK
notes: full-length ORF 1347 bp (448 residues from ORF length) amplified from L. donovani genomic DNA; pET28a(+) BamHI/HindIII, His-tagged, E. coli BL21, Ni-NTA
Turning to B1, the Michaelis-Menten constant (Km) was 42.67 ± 0.38 mM in “purified protein [1]”; 0.0008103 ± 0.00011 mM in “purified protein [2]”; 0.02359 ± 0.00399 mM in “purified protein [3]”; 5.055 ± 0.42 mM in the data set “purified protein [4]”; 3.5 ± 0.90 mM in “purified protein [5]”; 3.752 ± 0.96 mM in “purified protein [6]”. For the same protein, the Vmax in “purified protein [1]” came out at 8600 µM/min/mg; in “purified protein [2]”, 1850 µM/min/mg; in the data set “purified protein [4]”, 19900 µM/min/mg; in the data set “purified protein [5]”, 11700 µM/min/mg; in “purified protein [6]”, 19800 µM/min/mg.
